Target: HOIP PUB domain (aa 1–184) (UniProt Q96EP0)
Test: fluorescence polarisation; FITC-Ahx-labeled PIM peptides with purified PUB domains; triplicate

HOIP PUB domain (aa 1–184), sequence (Q96EP0 1-184): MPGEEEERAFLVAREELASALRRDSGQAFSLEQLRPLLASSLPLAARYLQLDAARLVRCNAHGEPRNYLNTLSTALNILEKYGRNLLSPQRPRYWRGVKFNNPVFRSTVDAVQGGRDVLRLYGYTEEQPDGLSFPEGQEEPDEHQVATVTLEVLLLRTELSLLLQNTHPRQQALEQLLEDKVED

Row | Kd [µM] | Substance
1 | 0.3 | FITC-Ahx-labeled OTULIN PIM peptide
2 | 0.3 | FITC-Ahx-labeled SPATA2 PIM peptide

Source: paper PMC5031558
